{"source": "paper PMC2175355", "biological_target": "RNA polymerase holoenzyme (sigma70);RapA (native) (Escherichia coli;Escherichia coli) (UniProt P0A7Z4+P0A8V2+P0A8T7+P0A800+P00579+P60240)", "assay": "EMSA", "data": [{"substance": "55-nt RNA with two stem-loops and rA18 tail", "values": [{"measurement": "binding signal (fold affinity vs holoenzyme without RapA)", "result": "> 20"}]}]}
